B1: Conjugate 4 (2188-D04-Y180/F404/K42/E161-LP1) (antibody, human IgG1, kappa)
heavy: MEVQLVESGGGLVQPGGSLRLSCAASGFNISDYDIHWVRQAPGKGLEWVGGIDPADGSTDYADSVKGRFTISADTSKNTAYLQMNSLRAEDTAVYYCARDYGVYDYWGQGTLVTVSSASTKGPSVFPLAPSSKSTSGGTAALGCLVKDYFPEPVTVSWNSGALTSGVHTFPAVLQSSGLSLSSVVTVPSSSLGTQTYICNVNHKPSNTKVDKKVEPKSCDKTHTCPPCPAPELLGGPSVFLFPPKPKDTLMISRTPEVTCVVVDVSHEDPEVKFNWYVDGVEVHNAKTKPREEQYNSTYRVVSVLTVLHQDWLNGKEYKCKVSNKALPAPIEKTISKAKGQPREPQVYTLPPSREEMTKNQVSLTCLVKGFYPSDIAVEWESNGQPENNYKTTPPVLDSDGSFLYSKLTVDKSRWQQGNVFSCSVMHEALHNHYTQKSLSLSPGK
light: MDIQMTQSPSSLSASVGDRVTITCRASQDVNTAVAWYQQKPGAPKLLIYSASFLYSGVPSRFSGSRSGTDFTLTISSLQPEDFATYYCQQHYTTPPTFGQGTKVEIKRTVAAPSVFIFPPSDEQLKSGTASVVCLLNNFYPREAKVQWKVDNALQSGNSQSVTEQDSKDSTYSLSSTLTLSKADYEKHKVYACEVTHQGLSSPVTKSFNRGEC
modifications: pAMF in place of K42 and E161, printed '*', conjugated to LP1; pAMF in place of Y180 and F404 (EU), printed '*', conjugated to LP1
B2: Conjugate 7 (2188-D04-Y180/F404/K42/E161-LP10) (antibody, human IgG1, kappa)
heavy: B1 heavy
light: B1 light
modifications: pAMF in place of K42 and E161, printed '*', conjugated to LP10; pAMF in place of Y180 and F404 (EU), printed '*', conjugated to LP10
B3: Conjugate 10: D04-Y180/F404/K42/E161-LP4 (antibody, human IgG1, kappa)
heavy: B1 heavy
light: B1 light
modifications: pAMF at K42 and E161 (printed * in the sequence), linked to LP4; pAMF at Y180 and F404 (printed * in the sequence), linked to LP4
B4: Conjugate 13: D04-Y180/F404/K42/E161-LP6 (antibody, human IgG1, kappa)
heavy: B1 heavy
light: B1 light
modifications: pAMF at K42 and E161 (printed * in the sequence), linked to LP6; pAMF at Y180 and F404 (printed * in the sequence), linked to LP6
B5: Conjugate 15: D04-Y180/F404/K42/E161-LP13 (antibody, human IgG1, kappa)
heavy: B1 heavy
light: B1 light
modifications: pAMF at K42 and E161 (printed * in the sequence), linked to LP13; pAMF at Y180 and F404 (printed * in the sequence), linked to LP13
B6: Conjugate 9: D04-Y180/F404/K42/E161-LP3 (antibody, human IgG1, kappa)
heavy: B1 heavy
light: B1 light
modifications: pAMF at K42 and E161 (printed * in the sequence), linked to LP3; pAMF at Y180 and F404 (printed * in the sequence), linked to LP3
B7: Conjugate 11: D04-Y180/F404/K42/E161-LP7 (antibody, human IgG1, kappa)
heavy: B1 heavy
light: B1 light
modifications: pAMF at K42 and E161 (printed * in the sequence), linked to LP7; pAMF at Y180 and F404 (printed * in the sequence), linked to LP7
B8: Conjugate 16: D04-Y180/F404/K42/E161-LP34 (antibody, human IgG1, kappa)
heavy: B1 heavy
light: B1 light
modifications: pAMF at K42 and E161 (printed * in the sequence), linked to LP34; pAMF at Y180 and F404 (printed * in the sequence), linked to LP34
B9: Conjugate 12: D04-Y180/F404/K42/E161-LP5 (antibody, human IgG1, kappa)
heavy: B1 heavy
light: B1 light
modifications: pAMF at K42 and E161 (printed * in the sequence), linked to LP5; pAMF at Y180 and F404 (printed * in the sequence), linked to LP5
B10: Conjugate 14: D04-Y180/F404/K42/E161-LP12 (antibody, human IgG1, kappa)
heavy: B1 heavy
light: B1 light
modifications: pAMF at K42 and E161 (printed * in the sequence), linked to LP12; pAMF at Y180 and F404 (printed * in the sequence), linked to LP12
B11: Conjugate 4: D04-Y180/F404/K42/E161-LP1 (antibody, human IgG1, kappa)
heavy: B1 heavy
light: B1 light
modifications: pAMF at K42 and E161 (printed * in the sequence), linked to LP1; pAMF at Y180 and F404 (printed * in the sequence), linked to LP1
B12: Conjugate 8: D04-Y180/F404/K42/E161-LP2 (antibody, human IgG1, kappa)
heavy: B1 heavy
light: B1 light
modifications: pAMF at K42 and E161 (printed * in the sequence), linked to LP2; pAMF at Y180 and F404 (printed * in the sequence), linked to LP2
B13: Conjugate 38: D04-Y180F404/K42/E161-LP23 (antibody, human IgG1, kappa)
heavy: B1 heavy
light: B1 light
modifications: pAMF at K42 and E161 (printed * in the sequence), linked to LP23; pAMF at Y180 and F404 (printed * in the sequence), linked to LP23
B14: Conjugate 31: D04-Y180F404/K42/E161-LP15 (antibody, human IgG1, kappa)
heavy: B1 heavy
light: B1 light
modifications: pAMF at K42 and E161 (printed * in the sequence), linked to LP15; pAMF at Y180 and F404 (printed * in the sequence), linked to LP15
B15: Conjugate 35: D04-Y180F404/K42/E161-LP19 (antibody, human IgG1, kappa)
heavy: B1 heavy
light: B1 light
modifications: pAMF at K42 and E161 (printed * in the sequence), linked to LP19; pAMF at Y180 and F404 (printed * in the sequence), linked to LP19
B16: Conjugate 30: D04-Y180F404/K42/E161-LP14 (antibody, human IgG1, kappa)
heavy: B1 heavy
light: B1 light
modifications: pAMF at K42 and E161 (printed * in the sequence), linked to LP14; pAMF at Y180 and F404 (printed * in the sequence), linked to LP14
B17: Conjugate 36: D04-Y180F404/K42/E161-LP20 (antibody, human IgG1, kappa)
heavy: B1 heavy
light: B1 light
modifications: pAMF at K42 and E161 (printed * in the sequence), linked to LP20; pAMF at Y180 and F404 (printed * in the sequence), linked to LP20
B18: Conjugate 32: D04-Y180F404/K42/E161-LP16 (antibody, human IgG1, kappa)
heavy: B1 heavy
light: B1 light
modifications: pAMF at K42 and E161 (printed * in the sequence), linked to LP16; pAMF at Y180 and F404 (printed * in the sequence), linked to LP16
B19: Conjugate 40: D04-Y180F404/K42/E161-LP21 (antibody, human IgG1, kappa)
heavy: B1 heavy
light: B1 light
modifications: pAMF at K42 and E161 (printed * in the sequence), linked to LP21; pAMF at Y180 and F404 (printed * in the sequence), linked to LP21
B20: Conjugate 34: D04-Y180F404/K42/E161-LP18 (antibody, human IgG1, kappa)
heavy: B1 heavy
light: B1 light
modifications: pAMF at K42 and E161 (printed * in the sequence), linked to LP18; pAMF at Y180 and F404 (printed * in the sequence), linked to LP18
B21: Conjugate 39: D04-Y180F404/K42/E161-LP22 (antibody, human IgG1, kappa)
heavy: B1 heavy
light: B1 light
modifications: pAMF at K42 and E161 (printed * in the sequence), linked to LP22; pAMF at Y180 and F404 (printed * in the sequence), linked to LP22
B22: Conjugate 33: D04-Y180F404/K42/E161-LP17 (antibody, human IgG1, kappa)
heavy: B1 heavy
light: B1 light
modifications: pAMF at K42 and E161 (printed * in the sequence), linked to LP17; pAMF at Y180 and F404 (printed * in the sequence), linked to LP17

Biological target: human ROR1 (hROR1) (human, UniProt Q01973 30-937)
Assay: cell-based or functional assay

Point of comparison: B1, “NTERA-2 cell killing EC50” value 0.022 nM. Against it:
- B2 — 2.2-fold higher, 0.048 nM

Point of comparison: B2, “NTERA-2 cell killing Span” value 94%. Against it:
- B1 — lower, 63%

Biological target: T1, ROR1 antigen expressed on ROR1 positive Ntera-2 cells (UniProt Q01973 30-937)
Assay: cell-based or functional assay

Point of comparison: B10, “NTERA-2 cell killing EC50” value 0.036 nM. Against it:
- B3 — 9-fold lower, 0.004 nM
- B4 — within 1.5-fold, 0.028 nM
- B5 — 2-fold higher, 0.072 nM
- B6 — within 1.5-fold, 0.027 nM
- B7 — higher, > 10 nM
- B8 — higher, > 10 nM
- B11 — 1.6-fold lower, 0.023 nM
- B12 — higher, > 10 nM

Point of comparison: B11, “NTERA-2 cell killing Span (%)” value 58%. Against it:
- B3 — higher, 77%
- B4 — lower, 38%
- B6 — higher, 94%
- B7 — lower, < 10%
- B8 — lower, < 10%
- B9 — higher, 94%
- B10 — lower, 56%
- B12 — lower, < 10%

Biological target: T1, ROR1 antigen expressed on ROR1 positive …
Assay: cell-based or functional assay
Remark: another data set of the same source

Point of comparison: B11, “NTERA-2 cell killing EC50” value 0.067 nM. Against it:
- B3 — 3.5-fold lower, 0.019 nM

Point of comparison: B3, “NTERA-2 cell killing Span (%)” value 86%. Against it:
- B11 — lower, 60%

Biological target: T1, ROR1 antigen expressed on ROR1 positive …
Assay: cell-based or functional assay
Remark: another data set of the same source

Point of comparison: B3, “NTERA-2 cell killing EC50” value 0.013 nM. Against it:
- B13 — 8.3-fold higher, 0.108 nM
- B14 — within 1.5-fold, 0.018 nM
- B15 — 18-fold higher, 0.236 nM
- B16 — 1.5-fold higher, 0.02 nM
- B17 — 17-fold higher, 0.222 nM
- B18 — 1.8-fold higher, 0.023 nM
- B19 — 5.8-fold higher, 0.076 nM
- B20 — 29-fold higher, 0.373 nM
- B21 — 17-fold higher, 0.215 nM
- B11 — 3.8-fold higher, 0.05 nM
- B22 — within 1.5-fold, 0.019 nM

Point of comparison: B11, “NTERA-2 cell killing Span (%)” value 65%. Against it:
- B3 — higher, 89%
- B13 — lower, 64%
- B14 — higher, 87%
- B15 — higher, 77%
- B16 — higher, 88%
- B17 — higher, 72%
- B18 — higher, 86%
- B19 — higher, 68%
- B20 — higher, 73%
- B21 — lower, 54%
- B22 — higher, 87%

Biological target: T1, ROR1 antigen expressed on ROR1 positive …
Assay: cell-based or functional assay
Remark: another data set of the same source

Point of comparison: B3, “NTERA-2 cell killing EC50” value 0.003 nM. Against it:
- B6 — 40-fold higher, 0.119 nM

Point of comparison: B6, “NTERA-2 cell killing Span (%)” value 63%. Against it:
- B3 — higher, 96%
